The values below come from article PMC4072508, “Genome-Wide Prediction and Validation of Peptides That Bind Human Prosurvival Bcl-2 Proteins” (PLoS Computational Biology, 2014).

The target of test [1] is T1, Bcl-w, Q92843.
T1 chain: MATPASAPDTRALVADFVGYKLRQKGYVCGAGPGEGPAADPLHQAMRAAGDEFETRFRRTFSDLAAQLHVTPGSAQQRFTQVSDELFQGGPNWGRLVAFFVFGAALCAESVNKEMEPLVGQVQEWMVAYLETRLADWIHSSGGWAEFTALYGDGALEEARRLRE
The experiment in a line: peptide SPOT array, c-Myc-tagged receptor at 1 uM or 100 nM, anti-c-Myc-Cy3.

Test [2] deals with T2, Bfl-1, Q16548.
T2 chain: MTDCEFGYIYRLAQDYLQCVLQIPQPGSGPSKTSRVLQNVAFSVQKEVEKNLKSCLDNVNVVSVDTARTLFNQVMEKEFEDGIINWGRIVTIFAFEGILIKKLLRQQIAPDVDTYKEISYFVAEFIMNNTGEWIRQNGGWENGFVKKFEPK
The test is described as above.

Test [3] addresses T3, Mcl-1, Q07820.
T3 chain: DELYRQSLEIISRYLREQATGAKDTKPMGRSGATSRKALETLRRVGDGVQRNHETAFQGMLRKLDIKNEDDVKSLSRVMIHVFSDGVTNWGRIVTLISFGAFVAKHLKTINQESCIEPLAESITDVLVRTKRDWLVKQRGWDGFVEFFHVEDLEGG
Described as above.

For test [4], the target named is Bcl-xL, Q07817. Described as above.
Bcl-xL, Q07817, sequence (Q07817 1-209): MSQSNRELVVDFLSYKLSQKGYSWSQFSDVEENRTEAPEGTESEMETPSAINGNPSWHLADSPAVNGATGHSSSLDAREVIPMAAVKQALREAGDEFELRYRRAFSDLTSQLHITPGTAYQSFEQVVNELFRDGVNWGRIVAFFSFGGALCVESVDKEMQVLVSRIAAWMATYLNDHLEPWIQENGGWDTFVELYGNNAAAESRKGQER
Test [5] deals with Bcl-2, P10415. The test is described as above.
Target sequence in this assay (P10415 1-217): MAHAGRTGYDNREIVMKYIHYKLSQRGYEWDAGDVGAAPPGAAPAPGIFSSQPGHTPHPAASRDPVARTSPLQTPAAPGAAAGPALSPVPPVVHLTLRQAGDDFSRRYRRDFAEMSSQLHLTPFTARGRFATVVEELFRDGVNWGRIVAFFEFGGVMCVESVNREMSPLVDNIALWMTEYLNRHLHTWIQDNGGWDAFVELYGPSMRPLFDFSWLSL
The target of test [6] is T1, Bcl-w, Q92843. Kind of test: fluorescence polarisation, direct titration of receptor into 10 nM labelled peptide.
The target in test [7] is T2, Bfl-1, Q16548. The description is as above.
Test [8] concerns the target T3, Mcl-1, Q07820. The description is as above.
For test [9], the target named is Bcl-xL, Q07817. The description is as above.
For test [10], the target named is T4, Bcl-2, P10415.
T4 chain: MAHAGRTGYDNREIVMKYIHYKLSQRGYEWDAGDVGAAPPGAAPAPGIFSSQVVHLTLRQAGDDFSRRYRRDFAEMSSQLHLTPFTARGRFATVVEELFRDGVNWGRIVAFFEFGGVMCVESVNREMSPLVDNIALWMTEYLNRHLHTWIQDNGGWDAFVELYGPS
The description is as above.

A value given as a limit tells only on which side of the number the result lay.

For the molecule RYRHGAPAEQLRHLADMLTTKWATLQ [PLEKHH1], the SPOT signal as a fraction of Bim BH3's signal on the same receptor and array in the test with Bcl-w, Q92843 [1] was 0.81; with Bfl-1, Q16548 [2], 0.56; with Mcl-1, Q07820 [3], 0.41; with Bcl-xL, Q07817 [4] it was 1.44; with Bcl-2, P10415 [5] it was 0.28. The equilibrium dissociation constant (Kd) – broadly, the concentration at which binding is half-saturated – was 1400 nM with Bcl-w, Q92843 [6]; > 5680 nM in the test with Bfl-1, Q16548 [7]; 977 nM with Mcl-1, Q07820 [8]; 650 nM with Bcl-xL, Q07817 [9]; 1500 nM in the test with Bcl-2, P10415 [10].
As for AELRLFLAQRLRWLCDSCPASRATCV [NBEAL2], the SPOT signal as a fraction of Bim BH3's signal on the same receptor and array with Bfl-1, Q16548 [2] was found to be 0.46; with Mcl-1, Q07820 [3] it was 1.01; with Bcl-xL, Q07817 [4] it was 1.24. For the same molecule, the Kd with Bcl-w, Q92843 [6] stood at 29 nM; in the test with Bfl-1, Q16548 [7] it was 3270 nM; with Mcl-1, Q07820 [8], 3810 nM; with Bcl-xL, Q07817 [9] it was 10 nM; with Bcl-2, P10415 [10], 16 nM.
For LMARPAVALHFQSIADGFKEAVRYVL [SOS2], the SPOT signal as a fraction of Bim BH3's signal on the same receptor and array with Bfl-1, Q16548 [2] amounted to 0.43; with Mcl-1, Q07820 [3] it was 1.08; with Bcl-xL, Q07817 [4], 0.85. For the same molecule, the Kd was 5380 nM with Bcl-w, Q92843 [6]; > 3290 nM in the test with Bfl-1, Q16548 [7]; > 4000 nM with Mcl-1, Q07820 [8]; > 6900 nM with Bcl-xL, Q07817 [9]; 3290 nM with Bcl-2, P10415 [10].
Take LCQLSCVSKLMRDVCGSLLQSRGMVI [FBXO30]: the SPOT signal as a fraction of Bim BH3's signal on the same receptor and array with Bfl-1, Q16548 [2] was determined as 0.31; with Mcl-1, Q07820 [3] it was 0.28; with Bcl-xL, Q07817 [4], 0.62. For the same molecule, the Kd is 3280 nM with Bcl-w, Q92843 [6]; > 10000 nM with Bfl-1, Q16548 [7]; > 10000 nM with Mcl-1, Q07820 [8]; > 10000 nM with Bcl-xL, Q07817 [9]; 2560 nM with Bcl-2, P10415 [10].
For ATKRETAATFLKKVAKEFGFQNNGFS [NPLOC4], the SPOT signal as a fraction of Bim BH3's signal on the same receptor and array in the test with Bcl-w, Q92843 [1] is 0.77; in the test with Bfl-1, Q16548 [2], 0.41; with Mcl-1, Q07820 [3], 0.23; in the test with Bcl-xL, Q07817 [4], 0.73; with Bcl-2, P10415 [5], 0.25. Moreover, the dissociation constant (Kd) in the test with Bcl-w, Q92843 [6] is > 4500 nM; with Bfl-1, Q16548 [7] it was > 4660 nM; with Mcl-1, Q07820 [8], > 4000 nM; with Bcl-xL, Q07817 [9], > 100000 nM; in the test with Bcl-2, P10415 [10] it was 2060 nM.
For the molecule TRELQELARKLQELADASENLLTENT [TXNDC11], the SPOT signal as a fraction of Bim BH3's signal on the same receptor and array in the test with Bcl-w, Q92843 [1] worked out at 0.27; with Bfl-1, Q16548 [2], 0.01; with Mcl-1, Q07820 [3], 0.01; in the test with Bcl-xL, Q07817 [4] it was 0.04; in the test with Bcl-2, P10415 [5], 0.01. For the same molecule, the Kd is 249 nM in the test with Bcl-w, Q92843 [6]; > 10000 nM with Bfl-1, Q16548 [7]; 2380 nM with Mcl-1, Q07820 [8]; 1490 nM with Bcl-xL, Q07817 [9]; 86 nM with Bcl-2, P10415 [10].
For NATHEEVVHLLRNAGDEVTITVEYLR [SNTG2], the SPOT signal as a fraction of Bim BH3's signal on the same receptor and array with Bcl-w, Q92843 [1] came to 0.02; in the test with Bfl-1, Q16548 [2], 0.01; in the test with Mcl-1, Q07820 [3] it was 0.09; in the test with Bcl-xL, Q07817 [4], 0.04; with Bcl-2, P10415 [5] it was 0.01. Also, the Kd in the test with Bcl-w, Q92843 [6] was > 6560 nM; in the test with Bfl-1, Q16548 [7] it was > 4070 nM; with Mcl-1, Q07820 [8], 22 nM; in the test with Bcl-xL, Q07817 [9], > 4000 nM; with Bcl-2, P10415 [10] it was > 3040 nM.
On to RYPILENPEILRKTADDFLNRIALTD [CCNH], for which the SPOT signal as a fraction of Bim BH3's signal on the same receptor and array with Bcl-w, Q92843 [1] turned out to be 0.24; in the test with Bfl-1, Q16548 [2], 0.02; in the test with Mcl-1, Q07820 [3], 0.02; with Bcl-xL, Q07817 [4], 0.06; with Bcl-2, P10415 [5], 0.04. The Kd is 1920 nM with Bcl-w, Q92843 [6]; > 9620 nM with Bfl-1, Q16548 [7]; > 4000 nM with Mcl-1, Q07820 [8]; > 5720 nM with Bcl-xL, Q07817 [9]; 7130 nM with Bcl-2, P10415 [10].
In the case of EVLAGPLAQRLSHIAEDVGRLVKKSR [ARHGAP4], the SPOT signal as a fraction of Bim BH3's signal on the same receptor and array in the test with Bcl-w, Q92843 [1] was 0.94; with Bfl-1, Q16548 [2], 0.4; in the test with Mcl-1, Q07820 [3] it was 0.28; with Bcl-xL, Q07817 [4], 0.4; in the test with Bcl-2, P10415 [5] it was 0.1. The dissociation constant (Kd) with Bcl-w, Q92843 [6] was 749 nM; with Bfl-1, Q16548 [7], > 5600 nM; with Mcl-1, Q07820 [8], > 2430 nM; in the test with Bcl-xL, Q07817 [9], 3060 nM; in the test with Bcl-2, P10415 [10], 6090 nM.
With SSLSDGLPVHLANIADELTQKKKMFK [AGBL2], the SPOT signal as a fraction of Bim BH3's signal on the same receptor and array in the test with Bcl-w, Q92843 [1] is 0.74; in the test with Bfl-1, Q16548 [2], 0.15; with Mcl-1, Q07820 [3], 0.11; in the test with Bcl-xL, Q07817 [4] it was 0.25; with Bcl-2, P10415 [5], 0.105. Further, the dissociation constant Kd was 5870 nM in the test with Bcl-w, Q92843 [6]; > 4660 nM with Bfl-1, Q16548 [7]; > 5020 nM with Mcl-1, Q07820 [8]; > 4000 nM in the test with Bcl-xL, Q07817 [9]; > 100000 nM with Bcl-2, P10415 [10].
Regarding EEIIHKLAMQLRHIGDNIDHRMVRED [PXT1], the SPOT signal as a fraction of Bim BH3's signal on the same receptor and array with Bcl-w, Q92843 [1] came out at 0.99; with Bfl-1, Q16548 [2], 0.99; in the test with Mcl-1, Q07820 [3] it was 0.9; with Bcl-xL, Q07817 [4], 0.26; with Bcl-2, P10415 [5], 0.13. Also, the Kd with Bcl-w, Q92843 [6] was 5 nM; with Bfl-1, Q16548 [7] it was 1 nM; with Mcl-1, Q07820 [8], 0.9 nM; in the test with Bcl-xL, Q07817 [9], 8 nM; with Bcl-2, P10415 [10] it was 14 nM.
In the case of KSRLVQQSKALKELADELQERCQRPA [TRIM58], the SPOT signal as a fraction of Bim BH3's signal on the same receptor and array in the test with Bcl-w, Q92843 [1] came out at 0.29; in the test with Bfl-1, Q16548 [2] it was 0.11; with Mcl-1, Q07820 [3] it was 0.05; with Bcl-xL, Q07817 [4], 0.29; in the test with Bcl-2, P10415 [5] it was 0.06. Also, the Kd with Bcl-w, Q92843 [6] was 361 nM; in the test with Bfl-1, Q16548 [7], > 4660 nM; in the test with Mcl-1, Q07820 [8] it was > 6070 nM; with Bcl-xL, Q07817 [9] it was 4550 nM; with Bcl-2, P10415 [10], 975 nM.
In the case of FERVEQMCIQIKEVGDRVNYIKRSLQ [TRPM7], the SPOT signal as a fraction of Bim BH3's signal on the same receptor and array with Bcl-w, Q92843 [1] came out at 0.2; with Bfl-1, Q16548 [2], 0.49; in the test with Mcl-1, Q07820 [3], 0.44; in the test with Bcl-xL, Q07817 [4], 0.34; in the test with Bcl-2, P10415 [5], 0.38. Besides, the equilibrium dissociation constant (Kd) was found to be 2490 nM in the test with Bcl-w, Q92843 [6]; 1900 nM with Bfl-1, Q16548 [7]; 592 nM in the test with Mcl-1, Q07820 [8]; 679 nM in the test with Bcl-xL, Q07817 [9]; 124 nM with Bcl-2, P10415 [10].
